Consider 1 substance from publication PMC11267267, “Metabolic Recoding of NSUN2‐Mediated m^5C Modification Promotes the Progression of Colorectal Cancer via the NSUN2/YBX1/m^5C‐ENO1 Positive Feedback Loop” (Advanced Science, 2024).

For the series, the system named is YBX1 cold shock domain (MST). The series is described as follows: MST. The following applies: not given in the material (MST and pull-down methods text missing).

pKd: −log10 of the molar value.

For unmethylated ENO1 RNA oligo (MST), the pKd (in general, the Kd on a negative log10 scale, so that one unit is a factor of ten) is 5.00.
